Ends that are not written are not given here.
Assays:
hPSCs [1] = assay: HOX and NC gene expression (qRT-PCR) during neural crest differentiation of hPSCs; assay type: cell-based, human; conditions: for expression of HOX regulatory genes (CDX1, CDX2, CDX4): combined treatment with CHIR99021 and FGF2; for expression of posterior genes HoxB7, HoxC9, HoxA10 and CDX4: different concentrations of FGF2 and CHIR99021 together
Description: NC differentiation. The basic NC differentiation protocols used are based on previous works (Fattahi et al., Nature 531, 105-109, 2016; Tchieu et al., Cell Stem Cell 21, 399-410 e397, 2017). Briefly, matrigel (Thermo Fisher, A1413201) was diluted at 1:100 ratio in DMEMF-12 (Thermo Fisher, 21331020) and plates were coated with the diluted matrigel overnight at 4° C. For inducing differentiation, hESCs or iPSCs were dissociated at 70%-80% confluence using EDTA dissociation buffer and replated as a single cell suspension on matrigel-coated 24-well plates at a density of 100K cells/cm^2 in E6 medium containing 10 μM ROCK-inhibitor (Y-27632; R&D, 1254). The cells were kept in E6 medium (Thermo Fisher, A1516401)+Y-27632 overnight. The next day, the medium was switched to NC induction medium. For cranial differentiation, the cells were kept in E6 medium containing 10 μM SB431542 (R&D, 1614), […] (R&D, 314-BP), and 0.6 μM CHIR (R&D, 4423) for the first 2 days and then switched to E6 medium containing 10 μM SB431542 and 1.5 μM CHIR for 10 days. For vagal NC the same conditions were used with an additional 1 μM RA (Sigma, R2625) added to the medium starting from D6. To establish the sacral NC protocol, the cranial NC protocol was modified with varying concentrations of FGF2 (R&D, 233-FB/CF), CHIR and GDF11 (Peprotech, 120-11), added at different time points as detailed in the results section. For the generation of melanocytes, 100 nM EDN3 (American Peptide company, 88-5-10B) was added to the sacral NC protocol from day 14 to day 20. In experiments testing the RA hypothesis, the sacral NC protocol was modified using either 1 μM RA (Sigma, R2625) or 100 nM AGN (Tocris, 5758) as detailed in the experimental design section.
RNA extraction and RT-qPCR. RNA was prepared from samples collected with the Zymo Direct-zol Kit and extracted using the Direct-zol RNA MiniPrep kit. cDNA was generated using the iScript Reverse Transcription Supermix for RT-qPCR. For qPCR analysis, primers were obtained from QIAGEN or IDT and the reactions were performed following manufacturers' instructions using SsoFast EvaGreen® Supermix. The Assays were run on BioRad CFX384 Real-Time PCR machine. Results were normalized to GAPDH housekeeping genes.

rodent GSK3β homologs = conditions: against rodent GSK3β homologs; cited from earlier work
vagal NC = assay: Migration (surface area) of NC cells in response to growth factors; assay type: cell-based, human; conditions: 0.1x, 1x, 10x of standard concentration (100 nM EDN3, 25 ng/ml GDNF)
Description: (§1) Fluorescence image of cells and their migration at different time points: 0 hour (upper panel), 24 hours (middle panel), 48 hours (bottom panel). Scale bars, 50 pm. […] Scale bars, 500 pm. […] N=6 biological replicates. FIGS. 32D and 32E show surface area VNC or SNC cells in response to different growth factors. 1 equates to standard concentration (100 nM and 25 ng/ml for EDN3 and GDN F respectively), 0.1 equates to 1/10 of standard concentration and 10 equates to 10 times higher than the standard concentration. Surface area is quantified by ImageJ. N=4 biological replicates. […] The images are taken at different time points after transplantation: 1 Hour (left panel), 2 weeks (middle panel), 4 weeks (right panel). […] Data are present as Mean±SEM; ns: not significant P>0.05; *P≤0.05; **P≤0.01; ***P≤0.001; ****P≤0.0001
(§2) Migration and co-differentiation assays. Transwell assay: to test capacity of NC cells for invasion, we used the CytoSelect 24-Well Cell Invasion Assay, Basement (Cell Biolabs). We plated 200K cells per chamber in neural spheroids medium and added 500 μL of neural spheroid medium containing 10% fetal bovine serum to the lower well of the invasion plate and incubated the plate for 48 h at 37° C. in 5% CO2 atmosphere. Cells that crossed through the invasion chamber were stained with the Cell Stain Solution provided with the kit (Cell Biolabs) and examined under the microscope. The stained cells were then lysed and measured by plate reader for quantification. Migration assay: vagal or sacral neural spheroids were generated as described in enteric neuron differentiation section. Those spheroids were plated down on a 2D PO/LM/FN coated plated for assessing surface migration or embedded in […]) Matrigel for assessing migration within a Matrigel pellet. Pictures were taken at sequential time points post plating to trace the migration process. Scratch assay: vagal or sacral NC cells were plated on PO/LM/FN coated 24 well plates at density of 100×10^3 cells per cm^2. After 24 h, the culture lawn is scratched manually using a pipette tip. Live images are taken at different time points after the scratch was made to trace the migration.

sacral NC = assay: as above; assay type: cell-based, human
Description: as §1, §2

hPSCs [2] = assay: RNA-seq and ATAC-seq of NC differentiation with or without GDF11; assay type: cell-based, human
Description: RNA sequencing (RNA-seq). Cells were disassociated with Accutase for 20 minutes at 37° C. The cells were collected into 15 mL falcon tubes and DMEMF-12 containing 2% FBS was added to neutralize the enzyme. The cells were spun down and washed with PBS twice. The cells were spun down again in 1.5 mL Eppendorf tube and resuspended in 500 μL TRIzol (ThermoFisher catalog #15596018) and stored at −80° C. When all data points were collected, the samples underwent RNA extraction and RNA-seq as performed by the IGO core at MSKCC. Briefly, phase separation in cells lysed in 1 mL TRIzol Reagent was induced with 200 μL chloroform and RNA was extracted from the aqueous phase using the miRNeasy Mini Kit (Qiagen catalog #217004) on the QIAcube Connect (Qiagen) according to the manufacturer's protocol with 350 μL input. Samples were eluted in 15 μL RNase-free water. After RiboGreen quantification and quality control by Agilent BioAnalyzer, 500 ng of total RNA with RIN values of 9.6-10 underwent polyA selection and TruSeq library preparation according to instructions provided by Illumina (TruSeq Stranded mRNA LT Kit, catalog #RS-122-2102), with 8 cycles of PCR. Samples were barcoded and run on a HiSeq 4000 in a PE100 run, using the HiSeq 3000/4000 SBS Kit (Illumina). An average of 53 million paired reads was generated per sample and the percent of mRNA bases averaged 85%.
RNA-seq bioinformatics. STAR aligner (Dobin et al., Bioinformatics 29, 15-21, 2013) was used to map reads to the human genome (GRCh37). The 2-pass mapping method (Engström et al., Nature methods 10, 1185-1191, 2013) was used, in which the reads are mapped twice. SAM files were processed and converted to BAM format using PICARD tools and then HTseq was used to compute the expression count matrix from the mapped reads. DESeq2 (Love et al., Genome Biology 15, 550, 2014) was used to normalize the raw counts (Median of Ratios method) and perform differential gene expression analysis. Data are presented on a gene-by-gene basis as normalized counts or after carrying out a variance-stabilizing transformation followed by PCA analysis.
ATAC sequencing (ATAC-seq). Cells were disassociated with Accutase for 20 minutes at 37° C. The cells were collected into 15 mL falcon tubes and DMEMF-12 containing 2% FBS was added to neutralize the enzyme. The cells were spun down and washed with PBS twice. The cells were spun again in a 1.5 mL Eppendorf tube and resuspended in 500 μL stem cell banker cell freezing buffer and stored at liquid nitrogen tank. When all data points were collected, the samples were sent to IGO core. ATAC-seq was performed by IGO core at MSKCC. Profiling of chromatin was performed by ATAC-Seq as described in Buenrostro et al., Nat Methods 10, 1213-1218, 2013. Briefly, 50,000 viably frozen neural crest cells were washed in cold PBS and lysed. The transposition reaction was carried out using TDEI Tagment DNA Enzyme (Illumina catalog #20034198) incubated at 37° C. for 30 minutes. The DNA was cleaned with the MinElute PCR Purification Kit (QIAGEN catalog #28004) and material was amplified for 5 cycles using NEBNext High-Fidelity 2×PCR Master Mix (New England Biolabs catalog #M0541L). After evaluation by real-time PCR, 7-10 additional PCR cycles were done. The final product was cleaned by aMPure XP beads (Beckman Coulter catalog #A63882) at a 1× ratio, and size selection was performed at a 0.5× ratio. […] An average of 42 million paired reads were generated per sample. […]

[3] = low to medium level of EDN3, GDNF
[4] = RNA seq, day 3, following GDF11 treatment
[5] = early exposure to GDF11 in combination with FGF2 and CHIR

Cc1ccc(C2=CCC(C)(C)c3ccc(C#Cc4ccc(C(=O)O)cc4)cc32)cc1 [AGN, reference compound]
HOXC9 expression (hPSCs [1]; RA 1 μM or AGN 100 nM added to NC protocol): increased | sacral HOX gene expression (hPSCs [1]; RA inhibition in GDF11 treated cultures): minimal impact | HOXC10 expression (hPSCs [1]; RA inhibition in trunk NC (BMP condition)): promoted

Cc1c[nH]c(-c2cnc(NCCNc3ccc(C#N)cn3)nc2-c2ccc(Cl)cc2Cl)n1 [CHIR99021, 6-(2-(4-(2,4-dichlorophenyl)-5-(4-methyl-1H-imidazol-2-yl)pyrimidin-2-ylamino)ethylamino)nicotinonitrile, reference compound]
IC50 values (rodent GSK3β homologs): nanomolar | expression of HOX regulatory genes (CDX1, CDX2, CDX4) (hPSCs [1]): induced expression | expression of posterior genes HoxB7, HoxC9, HoxA10 and CDX4 (hPSCs [1]): induced the expression

EDN3: growth factor EDN3 (American Peptide company, 88-5-10B) (CTCFTYKDKECVYYCHLDIIW; ends and bridges not checked; cysteine pairing not given here; UniProt P14138 97-117, looked up)
vagal NC migration (vagal NC): highly promoted | sacral NC migration (sacral NC; high EDN3 concentration): suppressed | sacral NC migration (sacral NC; [3]): promoted

FGF2: activator of FGF signaling (R&D, 233-FB/CF)
expression of HOX regulatory genes (CDX1, CDX2, CDX4) (hPSCs [1]): induced expression | expression of posterior genes HoxB7, HoxC9, HoxA10 and CDX4 (hPSCs [1]): induced the expression

B1: GDNF: glial cell line derived neurotrophic factor (Peprotech, 450-10) (protein, UniProt P39905 78-211, looked up)
Glial cell line-derived …: SPDKQMAVLPRRERNRQAAAANPENSRGKGRRGQRGKNRGCVLTAIHLNVTDLGLGYETKEELIFRYCSGSCDAAETTYDKILKNLSRNRRLVSDKVGQACCRPIAFDDDLSFLDDNLVYHILRKHSAKRCGCI
vagal NC migration (vagal NC): barely affected | sacral NC migration (sacral NC; [3]): promoted

B2: GDF11: growth differentiation factor 11 or bone morphogenetic protein 11, a TGFβ family protein encoded by the GDF11 gene (protein, UniProt O95390 299-407, looked up)
Growth/differentiation factor …: NLGLDCDEHSSESRCCRYPLTVDFEAFGWDWIIAPKRYKANYCSGQCEYMFMQKYPHTHLVQQANPRGSAGPCCTPTKMSPINMLYFNDKQQIIYGKIPGMVVDRCGCS
levels of H3K4 methyltransferases such as SMYD2 (hPSCs [2]; [4]): decreased levels | levels of H3K27Me3 demethylases JMJD6 and KDM6B (hPSCs [2]; [4]): increased levels | gene expression of GRHL1, GRHL2 and GRHL3 (hPSCs [2]; following GDF11 exposure): significant decrease | chromatin accessibility of GRHL factors (hPSCs [2]; following GDF11 exposure, ATAC-seq): significant decrease | expression of RA signaling genes CRABP2, CYP26A1 and RBP4 (hPSCs [2]; following GDF11 treatment): reduced | transition from TNCs to SNCs (hPSCs [1]): promoted the transition | expression of posterior Hox genes by time of addition (hPSCs [1]; GDF11 added from day 0 to day 3 versus later time points): higher expression | expression of stem cell-related factors SOX2 and MYC (hPSCs [1]; GDF11 treated cultures): increased expression | expression of the more anterior HOX genes (HOX4-9) (hPSCs [1]; [5]): without affecting | sacral HOX gene expression (HOX10-13) (hPSCs [1]; [5]): dramatic and selective increase

From patent publication US20240279601A1, “METHODS OF GENERATING SACRAL NEURAL CREST LINEAGES AND USES THEREOF” (MEMORIAL SLOAN-KETTERING CANCER CENTER, priority 2021, published 2024)
